# Measured values taken from paper doi:10.1101/2022.08.25.505315 (bioRxiv, 2022).
# Biological target: the molecule itself
# Assay: SEC
protein,measurement,value
"human malic enzyme 3 (mitochondrial NADP+-dependent malic enzyme 3), residues 46-604 (enzyme, UniProt Q16798 46-604, looked up) LKKRGYDVTRNPHLNKGMAFTLEERLQLGIHGLIPPCFLSQDVQLLRIMRYYERQQSDLDKYIILMTLQDRNEKLFYRVLTSDVEKFMPIVYTPTVGLACQHYGLTFRRPRGLFITIHDKGHLATMLNSWPEDNIKAVVVTDGERILGLGDLGCYGMGIPVGKLALYTACGGVNPQQCLPVLLDVGTNNEELLRDPLYIGLKHQRVHGKAYDDLLDEFMQAVTDKFGINCLIQFEDFANANAFRLLNKYRNKYCMFNDDIQGTASVAVAGILAALRITKNKLSNHVFVFQGAGEAAMGIAHLLVMALEKEGVPKAEATRKIWMVDSKGLIVKGRSHLNHEKEMFAQDHPEVNSLEEVVRLVKPTAIIGVAAIAGAFTEQILRDMASFHERPIIFALSNPTSKAECTAEKCYRVTEGRGIFASGSPFKSVTLEDGKTFIPGQGNNAYVFPGVALGVIAGGIRHIPDEIFLLTAEQIAQEVSEQHLSQGRLYPPLSTIRDVSLRIAIKVLDYAYKHNLASYYPEPKDKEAFVRSLVYTPDYDSFTLDSYTWPKEAMNVQTV",stoichiometry N,4
